These results are taken from PMC12455937, “Interaction of West Nile virus NS5 with orthoflavivirus SLA RNAs and their effects on viral replication and inhibition” (Journal of Virology, 2025).

This series deals with the molecule itself. The experiment in a line: mass photometry; NS5 alone at 20 nM in MP buffer (50 mM HEPES, pH 7.5, 40 mM NaCl, 10 mM MgCl2); TwoMP (Refeyn); DENV NS3 and NS5 as mass standards; oligomers assigned from peak masses.

As usually defined, the stoichiometry N is a count of units in the complex or per binding partner.

“And” between values parts separate entries of the source, which are not always exact repeats. Equal values may be shown once.

B1: Full-length lineage II WNV NS5 (enzyme)
chain: not shown
notes: also called full-length NS5; viral polymerase
With B1, the “stoichiometry N” value is 2 and 3 and 4.
